According to patent US20090181034A1 (AGENSYS, published 2009):

T1: murine PSCA (mouse, UniProt P57096 21-95)
T1 construct: whole, on cells; also called mouse PSCA; Mouse-PSCA
T1 sequence (looked up): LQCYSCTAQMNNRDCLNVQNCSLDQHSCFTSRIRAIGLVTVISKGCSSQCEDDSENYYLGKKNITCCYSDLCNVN


How the values were obtained:
[1] = target: T2, PSCA (prostate stem cell antigen), human (human, UniProt O43653 12-83); assay: FACS titration on SW780 cells, anti-hIgG-PE, Prism sigmoidal dose-response fit
T2 construct: Tested on cells: SW780, LAPC9AI, PC3-PSCA, B300.19-PSCA, prostate cancer xenograft cells and tumour tissue; also called PSCA v.1; PSCA variant 1
Protocol: A panel of seven (7) anti-human PSCA antibodies was tested for their binding affinity to PSCA on SW780 cells, a human bladder cancer cell line expressing high level of PSCA. […] At the end of the incubation, cells were washed and incubated with anti-hIgG-PE detection antibody for 45 min at 4° C. After washing the unbound detection antibodies, the cells were analyzed by FACS; MFI values of each point were obtained using CellQuest Pro software and were used for affinity calculation using Graphpad Prism software: Sigmoidal Dose-Response (variable slope) equation (Table VII and Table VIII).

murine PSCA = target: T1, murine PSCA; assay: FACS on 293T cells expressing murine PSCA, anti-hIgG-PE
Protocol: The cells were incubated with the respective antibodies using the following protocol. […] Specific recognition was determined using anti-hIgG-PE secondary detection antibody.

Row | Binder | Kd [1] | binding result (murine PSCA)
1 | Ha1-4.37 (antibody, IgG1, V domains shown, Fully human MAb from human gamma 1 producing XenoMouse (IgG1, kappa), hybridoma ATCC PTA-6702) VH: PGALQESGPGLVRPSQTLSLTCTVSGGSISSGGTYYWIWIRQHPGKGLEWIGYIYYSGSTYYNPSLKSRVTISVDTSKNQFSLKLSSVTAADTAVYYCARDGITMVRGISGGMDVWGQGTTVTVSS VL: ASVGDRVTITCRASQSISSHLNWYQQKPGKAPKLLIYAASSLQSGVPSRFSGSGSGTDFTLSISSLQPEDFATYFCQQSYSIPRTFGQGTKVEITR | 0.23 nM | –
2 | Ha1-4.117 (antibody, V domains shown, Fully human MAb from human gamma 1 producing XenoMouse (IgG1, kappa), hybridoma ATCC PTA-6699; A fluorescein conjugate was used for IHC) VH: QVQLQESGPGLVKPSQTLSLTCTVSGGSISSGGYYWIWIRQHPGKGLEWIGYIYYNGNTYYNPSLKSRVTMSVDTSKNQFSLKLSSVTAADTAVYYCARDGITMIRGYYYGMDVWGQGTTVTVSS VL: QLTQSPSSVSASVGDRVTITCRASRGISSWLAWYQQKPGKAPKLLIYTASSLQSGVPSRFSGSGSGTDFTLTISSLQPEDFATYYCQQAYSFPRTFGQGTKVEIKR | 0.32 nM | binds
3 | Ha1-5.99 (antibody, IgG2, V domains shown, Fully human MAb from human gamma 2 producing XenoMouse (IgG2, kappa), hybridoma ATCC PTA-6703; Ha1-5.99.1 (subclone label) is treated as the same antibody; also called HA1-5.99.1; Ha1-5.99.1) VH: QVHLQQWGAGLLKPSETLSLTCAVYGGSFSGYYWSWIRQPPGKGLEWIGEINHSGSTSYKPSLKSRVTVSVDTSKNQFSLKLSYVTAADTAVYYCARDRGDYGDFLFDYWGQGTLVTVSS VL: SPGERATLSCRASQSIGSTYLAWYQQKPGQAPRLLIYGASSRATGIPERFSGSGSGTDFTLTISGLEPEDFAVFYCQQCGSSPPTFGQGTKVEIKR | 0.28 nM | –
4 | Ha1-1.16 (antibody, IgG1, V domains shown, Fully human MAb from human gamma 1 producing XenoMouse immunized with PSCA-GST (IgG1, kappa), hybridoma ATCC PTA-6698; Ha1-1.16.1 (subclone label) is treated as the same antibody; also called Ha1-1.16.1) VH: QVQLQQSGPGLVKPSQTLSLTCAISGDSVSSNSAAWNWIRQSPSRGLEWLGRTYYRSKWYNGYAVSVKSRMTINPDTSKNQFSLQLNSVTPEDTAVYYCARERLGELYGMDVWGQGTTVTVSS VL: QLTQSPDSLAVSLGERATINCKSSQNILYRSSKKNHLVWYQQKPGQPPKLLIYWASTRESGVPARFSGSGSGTDFTLTISTLQAEDVAVYYCQQYYSTPPTFGQGTRLEIKR | 6.91 nM | no binding
